# From publication PMC11897370 (Scientific Reports, 2025)
# Positions count from the first letter of the chain named. In names and notes the source's numbering stands.
# B1: Wild type (Wt) peroxiredoxin 6 (Prdx6), recombinant rat (enzyme)
# chain: MPGGLLLGDEAPNFEANTTIGHIRFHDFLGDSWGILFSHPRDFTPVCTTELGRAAKLAPEFAKRNVKLIALSIDSVEDHFAWSKDINAYNGAAPTEKLPFPIIDDKDRDLAILLGMLDPAEKDEKGMPVTARVVFIFGPDKKLKLSILYPATTGRNFDEILRVVDSLQLTASNPVATPVDWKKGESVMVLPTLPEEEAKQLFPKGVFTKELPSGKKYLRYTPQP
# B2: D42A mutant of rat Prdx6 (enzyme)
# chain: B1 chain with D42A
# B3: H79A mutant of rat Prdx6 (enzyme)
# chain: B1 chain with H79A
# Molecular target: the molecule itself
# Assay: dynamic light scattering
row,Protein,stoichiometry N
1,B1,2
2,B2,2
3,B3,2
